Target: Recombinant human IL-17A (Sino Biological, 12047-HNAS) (human) (UniProt Q16552)
Assay: indirect ELISA, human IL-17A coated (Table 7, not in this copy)

Chain of Recombinant human IL-17A (Sino Biological, 12047-HNAS) (human) (Q16552 24-155): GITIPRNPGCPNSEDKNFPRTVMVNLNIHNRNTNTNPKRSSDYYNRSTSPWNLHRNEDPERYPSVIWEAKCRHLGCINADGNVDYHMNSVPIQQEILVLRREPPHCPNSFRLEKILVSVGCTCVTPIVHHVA

EC50 ratio to the humanized antibody: 3 fold
B1: 杂交瘤14F10/9F6产生的鼠源抗体 (antibody, V domains shown)
VH: QVQLQQSGPEVVRPGVSVKISCKGSGYTFTDYAMHWVKQSHAKSLEWIGVIGPYNDNTNYNQKFKGKATMTVDKSSSTAYMEIARLTSEDSAIYYCARGERYFDYWGQGTTLTVSS
VL: DIQMTQSSSYLSVSLGGRVTITCRASDHINNWLAWYQQKPGNAPRLLIYGATSLETGVPSRFSGSGSGKDYTLSITSLQTEDVATYYCQQYWTIPLTFGAGTKLELK

From CN107522783A
